Patent US20140087995A1 (published 2014)
Numbered stars: 1 amine (or outer) side, 2 acyl side, 3 side chain; on linkers, the order of the positions; unused ones are H or OH. Bridge positions count the residues as written; N and C are the ends. Side chains are listed from the residue outwards. Ends that are not written are not given here. * marks the point of attachment. C20 diacid = O=C(O)CCCCCCCCCCCCCCCCCCC(=O)*; γGlu = O=C(O)[C@H](CCC(=O)[*:2])N[*:1]

T1: human amylin receptor (human, UniProt P30988 25-474; O60896 24-148, limits assumed)
T1 construct: whole, on cells; Assay used cell membranes of the Amylin 3(a)/CRE-luc BHK cells; the complex is called the human amylin receptor; also called hAmylin-R; hAmylinR
T1 sequence (looked up) 1: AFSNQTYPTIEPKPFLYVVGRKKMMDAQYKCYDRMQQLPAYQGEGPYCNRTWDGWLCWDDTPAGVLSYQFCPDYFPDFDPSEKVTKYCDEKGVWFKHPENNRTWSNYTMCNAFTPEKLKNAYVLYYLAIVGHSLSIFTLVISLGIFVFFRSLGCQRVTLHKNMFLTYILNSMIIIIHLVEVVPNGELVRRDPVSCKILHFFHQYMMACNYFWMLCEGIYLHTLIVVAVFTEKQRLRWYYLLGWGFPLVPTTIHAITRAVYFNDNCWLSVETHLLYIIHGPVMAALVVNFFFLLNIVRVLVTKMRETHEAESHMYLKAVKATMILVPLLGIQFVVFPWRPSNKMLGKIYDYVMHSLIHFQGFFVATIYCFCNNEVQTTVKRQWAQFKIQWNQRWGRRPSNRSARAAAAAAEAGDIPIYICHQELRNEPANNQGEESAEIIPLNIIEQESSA
T1 sequence (looked up) 2: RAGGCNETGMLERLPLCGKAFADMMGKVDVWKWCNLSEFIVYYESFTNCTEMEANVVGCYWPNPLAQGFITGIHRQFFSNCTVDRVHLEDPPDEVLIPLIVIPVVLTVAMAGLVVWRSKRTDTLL

T2: human calcitonin receptor (human, UniProt P30988 25-474)
T2 construct: whole, on cells; Assay used cell membranes of the transfected BHK cells; also called hCTR; hCT
T2 sequence (looked up): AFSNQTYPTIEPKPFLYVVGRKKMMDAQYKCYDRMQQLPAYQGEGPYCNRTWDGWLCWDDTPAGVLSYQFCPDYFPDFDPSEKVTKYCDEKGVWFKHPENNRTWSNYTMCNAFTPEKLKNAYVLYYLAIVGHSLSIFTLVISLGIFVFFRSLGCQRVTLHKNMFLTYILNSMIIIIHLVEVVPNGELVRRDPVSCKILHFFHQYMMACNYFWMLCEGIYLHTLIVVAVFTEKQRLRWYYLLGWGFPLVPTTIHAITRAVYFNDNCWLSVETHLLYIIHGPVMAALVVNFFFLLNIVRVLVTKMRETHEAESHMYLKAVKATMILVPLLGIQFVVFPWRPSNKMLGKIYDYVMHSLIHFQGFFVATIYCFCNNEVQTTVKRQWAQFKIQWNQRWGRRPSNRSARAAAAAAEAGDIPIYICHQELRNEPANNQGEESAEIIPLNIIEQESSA

T3: human calcitonin receptor (human, UniProt P30988 25-474)
T3 sequence (looked up): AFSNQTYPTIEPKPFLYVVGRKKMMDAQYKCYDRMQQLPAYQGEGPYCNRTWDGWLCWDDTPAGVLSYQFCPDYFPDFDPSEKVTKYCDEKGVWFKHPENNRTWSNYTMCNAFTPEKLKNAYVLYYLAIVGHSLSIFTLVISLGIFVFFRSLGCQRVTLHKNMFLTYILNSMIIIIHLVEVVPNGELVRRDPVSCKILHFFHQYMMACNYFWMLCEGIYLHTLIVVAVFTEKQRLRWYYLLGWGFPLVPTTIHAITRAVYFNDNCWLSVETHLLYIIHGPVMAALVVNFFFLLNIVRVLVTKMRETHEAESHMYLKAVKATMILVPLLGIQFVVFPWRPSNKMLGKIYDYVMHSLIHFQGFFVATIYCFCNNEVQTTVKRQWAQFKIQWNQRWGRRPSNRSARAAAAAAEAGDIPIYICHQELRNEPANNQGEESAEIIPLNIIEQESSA

T4: human amylin receptor (amylin 3(a) receptor: human calcitonin receptor with RAMP-3) (human, UniProt P30988 25-474; O60896 24-148, limits assumed)
T4 sequence (looked up) 1: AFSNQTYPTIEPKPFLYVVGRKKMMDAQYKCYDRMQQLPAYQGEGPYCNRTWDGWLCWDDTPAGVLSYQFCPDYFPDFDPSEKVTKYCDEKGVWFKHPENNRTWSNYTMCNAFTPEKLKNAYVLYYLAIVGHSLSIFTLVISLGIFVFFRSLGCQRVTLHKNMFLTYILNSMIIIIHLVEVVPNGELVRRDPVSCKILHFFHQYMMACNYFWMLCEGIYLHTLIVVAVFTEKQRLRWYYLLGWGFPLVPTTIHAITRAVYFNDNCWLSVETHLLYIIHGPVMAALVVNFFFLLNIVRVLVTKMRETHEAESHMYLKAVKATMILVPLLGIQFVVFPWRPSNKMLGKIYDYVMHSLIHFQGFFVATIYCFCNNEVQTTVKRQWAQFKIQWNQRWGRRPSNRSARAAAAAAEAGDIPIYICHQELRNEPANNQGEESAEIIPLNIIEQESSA
T4 sequence (looked up) 2: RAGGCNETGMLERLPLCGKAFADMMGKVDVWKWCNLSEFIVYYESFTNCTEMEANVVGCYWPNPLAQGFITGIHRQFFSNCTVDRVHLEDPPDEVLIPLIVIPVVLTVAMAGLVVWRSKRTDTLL

B1: N^α1-[(4S)-4-carboxy-4-(19-carboxynonadecanoylamino)butanoyl]-[Arg17,Pro21,Pro27,Lys35]-h-amylin (peptide)
peptide: KCNTATCATQRLANFLRHSSPNFGAIPSSTNVGSKTY
modifications: C20 diacid-gGlu on the alpha amino group of the N-terminal residue (Lys1); disulfide Cys2-Cys7; C-terminal amide
notes: Synthetic analogue; also called compound 34
B2: N^ε1-[(4S)-4-carboxy-4-[[(4S)-4-carboxy-4-(19-carboxynonadecanoylamino)butanoyl]amino]butanoyl]-[Glu14,Arg17,Pro21,Pro27,Arg34]-h-amylin (peptide)
peptide: K([γGlu-γGlu-C20 diacid])CNTATCATQRLAEFLRHSSPNFGAIPSSTNVGRNTY-NH2
modifications: disulfide 2-7; N-terminus assumed
SMILES: CC[C@H](C)[C@H](NC(=O)[C@H](C)NC(=O)CNC(=O)[C@H](Cc1ccccc1)NC(=O)[C@H](CC(N)=O)NC(=O)[C@@H]1CCCN1C(=O)[C@H](CO)NC(=O)[C@H](CO)NC(=O)[C@H](Cc1c[nH]cn1)NC(=O)[C@H](CCCNC(=N)N)NC(=O)[C@H](CC(C)C)NC(=O)[C@H](Cc1ccccc1)NC(=O)[C@H](CCC(=O)O)NC(=O)[C@H](C)NC(=O)[C@H](CC(C)C)NC(=O)[C@H](CCCNC(=N)N)NC(=O)[C@H](CCC(N)=O)NC(=O)[C@@H](NC(=O)[C@H](C)NC(=O)[C@@H]1CSSC[C@H](NC(=O)[C@@H](N)CCCCNC(=O)CC[C@H](NC(=O)CC[C@H](NC(=O)CCCCCCCCCCCCCCCCCCC(=O)O)C(=O)O)C(=O)O)C(=O)N[C@@H](CC(N)=O)C(=O)N[C@@H]([C@@H](C)O)C(=O)N[C@@H](C)C(=O)N[C@@H]([C@@H](C)O)C(=O)N1)[C@@H](C)O)C(=O)N1CCC[C@H]1C(=O)N[C@@H](CO)C(=O)N[C@@H](CO)C(=O)N[C@H](C(=O)N[C@@H](CC(N)=O)C(=O)N[C@H](C(=O)NCC(=O)N[C@@H](CCCNC(=N)N)C(=O)N[C@@H](CC(N)=O)C(=O)N[C@H](C(=O)N[C@@H](Cc1ccc(O)cc1)C(N)=O)[C@@H](C)O)C(C)C)[C@@H](C)O
notes: also called compound 88
B3: N^ε1-[(4S)-4-carboxy-4-[[(4S)-4-carboxy-4-(19-carboxynonadecanoylamino)butanoyl]amino]butanoyl]-[Glu14,Arg17,Pro21,Pro27,His34]-h-amylin (peptide)
peptide: K([γGlu-γGlu-C20 diacid])CNTATCATQRLAEFLRHSSPNFGAIPSSTNVGHNTY-NH2
modifications: disulfide 2-7; N-terminus assumed
SMILES: CC[C@H](C)[C@H](NC(=O)[C@H](C)NC(=O)CNC(=O)[C@H](Cc1ccccc1)NC(=O)[C@H](CC(N)=O)NC(=O)[C@@H]1CCCN1C(=O)[C@H](CO)NC(=O)[C@H](CO)NC(=O)[C@H](Cc1c[nH]cn1)NC(=O)[C@H](CCCNC(=N)N)NC(=O)[C@H](CC(C)C)NC(=O)[C@H](Cc1ccccc1)NC(=O)[C@H](CCC(=O)O)NC(=O)[C@H](C)NC(=O)[C@H](CC(C)C)NC(=O)[C@H](CCCNC(=N)N)NC(=O)[C@H](CCC(N)=O)NC(=O)[C@@H](NC(=O)[C@H](C)NC(=O)[C@@H]1CSSC[C@H](NC(=O)[C@@H](N)CCCCNC(=O)CC[C@H](NC(=O)CC[C@H](NC(=O)CCCCCCCCCCCCCCCCCCC(=O)O)C(=O)O)C(=O)O)C(=O)N[C@@H](CC(N)=O)C(=O)N[C@@H]([C@@H](C)O)C(=O)N[C@@H](C)C(=O)N[C@@H]([C@@H](C)O)C(=O)N1)[C@@H](C)O)C(=O)N1CCC[C@H]1C(=O)N[C@@H](CO)C(=O)N[C@@H](CO)C(=O)N[C@H](C(=O)N[C@@H](CC(N)=O)C(=O)N[C@H](C(=O)NCC(=O)N[C@@H](Cc1c[nH]cn1)C(=O)N[C@@H](CC(N)=O)C(=O)N[C@H](C(=O)N[C@@H](Cc1ccc(O)cc1)C(N)=O)[C@@H](C)O)C(C)C)[C@@H](C)O
notes: also called compound 87

Assays:
[1] = target: T1, human amylin receptor; test: SPA radioligand competition (125I-rat amylin), membranes of BHK cells with human calcitonin receptor + RAMP-3
Experimental: The binding assay was performed using scintillation proximity assay (SPA) beads (RPNQ0001) from PerkinElmer and cell membranes from the Amylin 3(a)/CRE-luc cells (as described in Assay (II)) were used. Membranes were prepared in the following way; the cells were rinsed with PBS and incubated with Versene for approximately 5 min before harvesting. The cells were flushed with PBS and the cell-suspension was centrifuged for 5 min at 1000 rpm. Cells were homogenized (ultrathurrax) in a buffer containing 20 mM Na-HEPES and 10 mM EDTA (pH 7.4) and centrifuged at 20.000 rpm for 15 min. The resulting pellet was resuspended, homogenized and centrifuged (20.000 rpm, 15 min) in a buffer containing 20 mM Na-HEPES and 0.1 mM EDTA (pH 7.4, buffer 2). The resulting pellet was resuspended in buffer 2 and protein concentration was measured (BCA protein Assay, Pierce). The homogenate was kept cold during the whole procedure. The membranes were kept at −80° C. until use. The assay was performed in a 384 well Optiplate (PerkinElmer) in a total volume of 40 ul. Membranes were mixed with SPA beads. Final concentration of membranes 35 ng/μL final and SPA beads was 0.05 mg/well. Test-compounds were dissolved in DMSO and further diluted in assay buffer (50 mM Hepes, pH 7.4, 1 mM CaCl2, 5 mM MgCl₂, 0.1% OA and 0.02% Tween20). […] The final mixture was incubated with shaking at 400 rpm for 120 min at 25° C. prior to centrifugation (1500 rpm, 10 min). Samples were analyzed on TopCounter™ (Packard). The IC₅₀ was calculated using (one site binding competition analysis) GraphPad Prism5 as a measure of receptor affinity.

[2] = target: T2, human calcitonin receptor; test: ratio IC50 hCTR / IC50 hAmylin-R of the two SPA competition assays; reference: human amylin receptor
In short: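 Competition binding by SPA with cell membranes (35 ng/μL) and SPA beads in 50 mM Hepes pH 7.4 with 1 mM CaCl2, 5 mM MgCl2, 0.1% OA and 0.02% Tween20. Incubated 120 min at 25 °C with shaking, then counted.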

[3] = target: T2, human calcitonin receptor; test: SPA radioligand competition (125I-calcitonin), membranes of BHK cells with human calcitonin receptor
In short: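 BHK hCTR membranes 35 ng/μL + SPA beads 0.05 mg/well; buffer 50 mM Hepes pH 7.4, 1 mM CaCl2, 5 mM MgCl₂, 0.1% OA, 0.02% Tween20. 120 min, 25° C., shaking. Scintillation count; IC50 by one-site binding competition.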

[4] = target: T3, human calcitonin receptor; test: cell-based or functional assay
[5] = target: T4, human amylin receptor (amylin 3(a) …); test: cell-based or functional assay

| Binder | IC50 [1] [nM] | Ratio hCT/hAmylin binding [2] | IC50 [3] [nM] | Ratio hCT/hAmylin funct. [4] [ratio] | hAmylin-R funct. EC50 (pM) [5] [pM] |
| --- | --- | --- | --- | --- | --- |
| B1 | 1.14 | 64.4 | 73.4 |  |  |
| B2 |  |  |  | 8.5 | 773 |
| B3 |  |  |  | 3.8 | 285 |
